The values below are quoted from earlier work in patent publication US20180296542A1, “IMINOSUGARS FOR IMPROVING BONE MINERAL DENSITY IN BONE DISEASE” (Saint Louis University, priority 2015, published 2018).

This data set relates to Akp2^−/− mice. The note with it: cited from earlier work.

B1: untagged, native human TNSALP: untagged, native human tissue nonspecific alkaline phosphatase used for ERT in Akp2−/− mice (protein, UniProt P05186 18-501, looked up)
Alkaline phosphatase, …: LVPEKEKDPKYWRDQAQETLKYALELQKLNTNVAKNVIMFLGDGMGVSTVTAARILKGQLHHNPGEETRLEMDKFPFVALSKTYNTNAQVPDSAGTATAYLCGVKANEGTVGVSAATERSRCNTTQGNEVTSILRWAKDAGKSVGIVTTTRVNHATPSAAYAHSADRDWYSDNEMPPEALSQGCKDIAYQLMHNIRDIDVIMGGGRKYMYPKNKTDVEYESDEKARGTRLDGLDLVDTWKSFKPRYKHSHFIWNRTELLTLDPHNVDYLLGLFEPGDMQYELNRNNVTDPSLSEMVVVAIQILRKNPKGFFLLVEGGRIDHGHHEGKAKQALHEAVEMDRAIGQAGSLTSSEDTLTVVTADHSHVFTFGGYTPRGNSIFGLAPMLSDTDKKPFTAILYGNGPGYKVVGGERENVSMVDYAHNNYQAQSAVPLRHETHGGEDVAVFSKGPMAHLLHGVHEQNYVPHVMAYAACIGANLGHCAPAS
Turning to B1, the “Growth and fertility compared to untreated knock-out animals” value is “better growth and normal fertility”; the “Length of life compared to untreated knock-out animals” value is recorded as “longer lives”. Besides, the “Bone findings after 6 months” value (after 6 months) was “hypomineralization and abnormal proliferative chondrocytes presented”.
